Substrate in the data set: CCCCCC1OC(O)CC1SC[C@H](NC(=O)CC[C@H](N)C(=O)O)C(=O)NCC(=O)O
Put plainly: TP_TRANSPORTER: uptake in membrane vesicle from MRP1-expressing High Five insect cells. The data set is classed as functional, cell membranes, BTI-TN-5B1-4.

Consider one protein from ChEMBL document CHEMBL2074203, “Multidrug resistance protein MRP1 protects against the toxicity of the major lipid peroxidation product 4-hydroxynonenal” (Biochem J, 2000).

As a reminder, the Km is the concentration of substrate that gives half-maximal velocity.

B1: Multidrug resistance-associated protein 1 (Homo sapiens) (protein)
chain: MALRGFCSADGSDPLWDWNVTWNTSNPDFTKCFQNTVLVWVPCFYLWACFPFYFLYLSRHDRGYIQMTPLNKTKTALGFLLWIVCWADLFYSFWERSRGIFLAPVFLVSPTLLGITMLLATFLIQLERRKGVQSSGIMLTFWLVALVCALAILRSKIMTALKEDAQVDLFRDITFYVYFSLLLIQLVLSCFSDRSPLFSETIHDPNPCPESSASFLSRITFWWITGLIVRGYRQPLEGSDLWSLNKEDTSEQVVPVLVKNWKKECAKTRKQPVKVVYSSKDPAQPKESSKVDANEEVEALIVKSPQKEWNPSLFKVLYKTFGPYFLMSFFFKAIHDLMMFSGPQILKLLIKFVNDTKAPDWQGYFYTVLLFVTACLQTLVLHQYFHICFVSGMRIKTAVIGAVYRKALVITNSARKSSTVGEIVNLMSVDAQRFMDLATYINMIWSAPLQVILALYLLWLNLGPSVLAGVAVMVLMVPVNAVMAMKTKTYQVAHMKSKDNRIKLMNEILNGIKVLKLYAWELAFKDKVLAIRQEELKVLKKSAYLSAVGTFTWVCTPFLVALCTFAVYVTIDENNILDAQTAFVSLALFNILRFPLNILPMVISSIVQASVSLKRLRIFLSHEELEPDSIERRPVKDGGGTNSITVRNATFTWARSDPPTLNGITFSIPEGALVAVVGQVGCGKSSLLSALLAEMDKVEGHVAIKGSVAYVPQQAWIQNDSLRENILFGCQLEEPYYRSVIQACALLPDLEILPSGDRTEIGEKGVNLSGGQKQRVSLARAVYSNADIYLFDDPLSAVDAHVGKHIFENVIGPKGMLKNKTRILVTHSMSYLPQVDVIIVMSGGKISEMGSYQELLARDGAFAEFLRTYASTEQEQDAEENGVTGVSGPGKEAKQMENGMLVTDSAGKQLQRQLSSSSSYSGDISRHHNSTAELQKAEAKKEETWKLMEADKAQTGQVKLSVYWDYMKAIGLFISFLSIFLFMCNHVSALASNYWLSLWTDDPIVNGTQEHTKVRLSVYGALGISQGIAVFGYSMAVSIGGILASRCLHVDLLHSILRSPMSFFERTPSGNLVNRFSKELDTVDSMIPEVIKMFMGSLFNVIGACIVILLATPIAAIIIPPLGLIYFFVQRFYVASSRQLKRLESVSRSPVYSHFNETLLGVSVIRAFEEQERFIHQSDLKVDENQKAYYPSIVANRWLAVRLECVGNCIVLFAALFAVISRHSLSAGLVGLSVSYSLQVTTYLNWLVRMSSEMETNIVAVERLKEYSETEKEAPWQIQETAPPSSWPQVGRVEFRNYCLRYREDLDFVLRHINVTINGGEKVGIVGRTGAGKSSLTLGLFRINESAEGEIIIDGINIAKIGLHDLRFKITIIPQDPVLFSGSLRMNLDPFSQYSDEEVWTSLELAHLKDFVSALPDKLDHECAEGGENLSVGQRQLVCLARALLRKTKILVLDEATAAVDLETDDLIQSTIRTQFEDCTVLTIAHRLNTIMDYTRVIVLDKGEIQEYGAPSDLLQQRGLFYSMAKDAGLV
With B1, the Km was found to be 1.6 µM.
